Experimental data as given in paper PMC3590139, “Isocitrate Dehydrogenase from Streptococcus mutans: Biochemical Properties and Evaluation of a Putative Phosphorylation Site at Ser102” (PLoS ONE, 2013).

B1: SmIDH (Streptococcus mutans UA159) (protein)
chain: MAEKVSFEEGKLQVPDKPVIPYIEGDGVGQDIWKNAQIVFDKAIAKVYGGHKQVIWREVLAGKKAYNETGNWLPNETLEIIKTHLLAIKGPLETPVGGGIRSLNVALRQELDLFACVRPVRYFKGVPSPLKHPEKTAITIFRENTEDIYAGIEWNAGTAEVQKVINFLQDDMQVKKIRFPKSSSIGIKPISIEGSQRLIRAAIEYALANNLTKVTLVHKGNIQKFTEGGFRKWGYELAKREYAAELASGQLVVDDIIADNFLQQILLKPERFDVVALTNLNGDYASDALAAQVGGIGISPGANINYQTGHAIFEATHGTAPDIAGQDLANPSSVLLSGCMLFDYIGWSKVSDLIMKAVEKAIANGQVTIDFAKELGVEALTTRQFSEVLLTYL
B2: NAD+-dependent isocitrate dehydrogenase of Streptococcus mutans (enzyme, UniProt Q59940 1-393, looked up)
chain: B1 chain
notes: 399 residues per subunit with the tag; The C-terminal position of the His6 tag is read from the reverse primer R-Sm^icd (CTA + six GTG codons on the antisense strand); also called SmIDH; S. mutans IDH; not shown: His6, C-terminal, kept

What was measured:
[1] = substrate: NC(=O)c1ccc[n+]([C@@H]2O[C@H](COP(=O)(O)OP(=O)(O)OC[C@H]3O[C@@H](n4cnc5c(N)ncnc54)[C@H](O)[C@@H]3O)[C@@H](O)[C@H]2O)c1; assay: purified protein; details: saturating DL-isocitrate, 35 mM Tris-HCl pH 7.5, […] MnCl2, 37 °C
[2] = substrate: O=C(O)CC(C(=O)O)C(O)C(=O)O; assay: purified protein; details: saturating NAD+, 35 mM Tris-HCl pH 7.5, […] MnCl2, 37 °C
[3] = target: the molecule itself; assay: SEC; HiLoad 10/300 Superdex 200, 0.05 M potassium phosphate pH 7.0, 0.15 M NaCl, 0.01% NaN3, flow 0.5 ml/min; calibrated with ovalbumin, conalbumin, aldolase, ferritin, thyroglobulin; native mass estimated as 70 kDa against a 43 kDa subunit

Row | Protein | Km [1] | kcat [1] | kcat/Km [1] | Km [2] | kcat [2] | kcat/Km [2] | stoichiometry N [3]
1 | B1 | 154 µM | 56 s⁻¹ | 360000 M⁻¹ s⁻¹ | 75 µM | 124 s⁻¹ | 1.65e+06 M⁻¹ s⁻¹ | 
2 | B2 |  |  |  |  |  |  | 2
